Test results from PMC6090015, “Identification and characterization of a novel β-D-galactosidase that releases pyruvylated galactose” (Scientific Reports, 2018).

Experiments:
[1] = biological target: T1, ORF1119 (PvGal-ase) (Bacillus sp. HMA207, UniProt Z9IVQ1LJN5, E163A); experiment: X-ray crystal structure, […] Å; format: binding; settings: co-crystallised with pNP-β-D-PvGal, pNP lost during crystal growth; active site; phosphate-citrate pH 5.2
T1 construct: full length 469 aa, no signal peptide; pET-32b, N-terminal His5 tag, E. coli BL21(DE3)CodonPlus delta-lacZ, Ni-purified

[2] = test system: T2, O=[N+]([O-])c1ccc(O[C@@H]2O[C@H](CO)[C@@H](O)[C@H](O)[C@H]2O)cc1; experiment: discontinuous pNP release, A405; format: biochemical, Bacillus sp. HMA207; settings: 50 mM HEPES-NaOH pH 7.5
T2 construct: full length 469 aa, no signal peptide; pET-32b, N-terminal His5 tag, E. coli BL21(DE3)CodonPlus delta-lacZ, Ni-purified
From the text: (§1) discontinuous pNP release, A405 on ORF1119 (PvGal-ase)

[3] = test system: T3, C[C@H]1O[C@@H](Oc2ccc([N+](=O)[O-])cc2)[C@H](O)[C@@H](O)[C@H]1O; experiment: discontinuous pNP release, A405; format: biochemical, Bacillus sp. HMA207; settings: 50 mM HEPES-NaOH pH 7.5
T3 construct: full length 469 aa, no signal peptide; pET-32b, N-terminal His5 tag, E. coli BL21(DE3)CodonPlus delta-lacZ, Ni-purified
From the text: as §1

[4] = test system: T4, CC1(C(=O)O)OC[C@H]2O[C@@H](Oc3ccc([N+](=O)[O-])cc3)[C@H](O)[C@@H](O)[C@H]2O1; experiment: discontinuous pNP release, A405; format: biochemical, Bacillus sp. HMA207; settings: 50 mM HEPES-NaOH pH 7.5, 37 °C
T4 construct: full length 469 aa, no signal peptide; pET-32b, N-terminal His5 tag, E. coli BL21(DE3)CodonPlus delta-lacZ, Ni-purified
From the text: as §1

[5] = test system: T5, O=[N+]([O-])c1ccc(O[C@@H]2O[C@H](CO)[C@H](O)[C@H](O)[C@H]2O)cc1; experiment: discontinuous pNP release, A405; format: biochemical, Bacillus sp. HMA207; settings: 50 mM HEPES-NaOH pH 7.5
T5 construct: full length 469 aa, no signal peptide; pET-32b, N-terminal His5 tag, E. coli BL21(DE3)CodonPlus delta-lacZ, Ni-purified
From the text: as §1

C[C@@]1(C(=O)O)OC[C@H]2OC(O)[C@H](O)[C@@H](O)[C@H]2O1 (stereo partly shown) [PvGal]
X-ray crystal structure, 2.45 Å [1]: In the complex structure, clear electron density is observed for the PvGal ligand

ORF1119 (PvGal-ase) (Bacillus sp. HMA207)
Km [2]: 7400 ± 400 µM
kcat [2]: 0.10 ± 0.002 s⁻¹
kcat/Km [2]: 14 M⁻¹ s⁻¹
Km [3]: 1900 ± 100 µM
kcat [3]: 1.6 ± 0.02 s⁻¹
kcat/Km [3]: 830 M⁻¹ s⁻¹
Km ([4]; 37.0 °C): 810 ± 140 µM
kcat ([4]; 37.0 °C): 5.2 ± 0.2 s⁻¹
kcat/Km ([4]; 37.0 °C): 6300 M⁻¹ s⁻¹
Km [5]: 3300 ± 400 µM
kcat [5]: 0.20 ± 0.005 s⁻¹
kcat/Km [5]: 60 M⁻¹ s⁻¹

ORF1119 (PvGal-ase) (Bacillus sp. HMA207; K434A)
Km [4]: 730 ± 120 µM
kcat [4]: 8.8 ± 0.2 s⁻¹
kcat/Km [4]: 12000 M⁻¹ s⁻¹

ORF1119 (PvGal-ase) (Bacillus sp. HMA207; N430A)
Km [4]: 900 ± 160 µM
kcat [4]: 7.0 ± 0.2 s⁻¹
kcat/Km [4]: 7700 M⁻¹ s⁻¹

ORF1119 (PvGal-ase) (Bacillus sp. HMA207; N430Y)
Km [4]: 370 ± 80 µM
kcat [4]: 7.7 ± 0.2 s⁻¹
kcat/Km [4]: 21000 M⁻¹ s⁻¹

ORF1119 (PvGal-ase) (Bacillus sp. HMA207; S427A)
Km [4]: 1920 ± 450 µM
kcat [4]: 4.4 ± 0.3 s⁻¹
kcat/Km [4]: 2300 M⁻¹ s⁻¹

ORF1119 (PvGal-ase) (Bacillus sp. HMA207; S427E)
Km [2]: 460 ± 90 µM
kcat [2]: 0.05 ± 0.001 s⁻¹
kcat/Km [2]: 98 M⁻¹ s⁻¹
Km [3]: 470 ± 60 µM
kcat [3]: 0.91 ± 0.02 s⁻¹
kcat/Km [3]: 2000 M⁻¹ s⁻¹
Km [5]: 890 ± 90 µM
kcat [5]: 0.13 ± 0.002 s⁻¹
kcat/Km [5]: 149 M⁻¹ s⁻¹

ORF1119 (PvGal-ase) (Bacillus sp. HMA207; Y436A)
Km [4]: 800 ± 180 µM
kcat [4]: 0.68 ± 0.03 s⁻¹
kcat/Km [4]: 860 M⁻¹ s⁻¹

ORF1119 (PvGal-ase) (Bacillus sp. HMA207; Y436F)
Km [4]: 530 ± 90 µM
kcat [4]: 6.5 ± 0.2 s⁻¹
kcat/Km [4]: 12000 M⁻¹ s⁻¹
